Measurements from article PMC11633749, “Identification of the Wnt signal peptide that directs secretion on extracellular vesicles” (Science Advances, 2024).

Columns and labels:
[1] = molecular target: T1, COPB2_(1–304), N-terminal WD repeat of COPB2 (S. cerevisiae, UniProt P41811 1-304); assay: ITC
T1 chain: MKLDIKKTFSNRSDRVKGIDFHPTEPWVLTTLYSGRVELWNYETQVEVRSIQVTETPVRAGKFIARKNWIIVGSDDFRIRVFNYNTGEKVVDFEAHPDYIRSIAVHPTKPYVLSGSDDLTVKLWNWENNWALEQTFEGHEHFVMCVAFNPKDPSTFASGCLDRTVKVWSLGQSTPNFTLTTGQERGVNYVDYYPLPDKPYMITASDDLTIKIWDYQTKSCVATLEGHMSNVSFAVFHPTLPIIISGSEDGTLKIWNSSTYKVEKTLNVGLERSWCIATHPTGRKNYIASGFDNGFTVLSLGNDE

[2] = molecular target: T2, COPB2_(1–304), N-terminal WD repeat of COPB2 (S. cerevisiae, UniProt P41811 1-304); assay: ITC; 450 μM of each peptide titrated into 20 μM COPB2 1-304; 25°C; 150 mM NaCl, 0.5 mM TCEP, 25 mM Hepes pH 7.5; one-site model; details: both partners purified
T2 construct: COPB2 (coatomer beta'), residues 1-304, N-terminal WD repeat domain; residues are counted in 'Saccharomyces cerevisiae COPB2 numbering'; PDB 2YNN (COPB2 1-304) served as search model; codon-optimised synthetic gene; also called WD-repeat domain of COPB2; source: E. coli BL21(DE3), purified (Ni-NTA, tag cleavage, ion exchange, SEC); not shown: 6xHis-Sumo3, N-terminal, cleaved
T2 sequence (looked up): T1 chain

Binder: PVRASRNKRPTFLAIKKP [EBP peptide K253A]
- Kd [1]: 47.2 µM

B1: exosome-binding peptide (EBP), 18-amino acid polypeptide of Wnt7a (240-257) (peptide)
peptide: PVRASRNKRPTFLKIKKP
notes: also called 18–amino acid EBP polypeptide
- Kd [2]: 11.6 µM

Binder: PVRASRNKRPTFLKIKAP [EBP peptide K256A]
- Kd [1]: 6 µM

B2: Wnt_(252–257) peptide (LKIKKP) (peptide)
peptide: LKIKKP
notes: also called C-terminal half of the polypeptide
- Kd [2]: 37.2 µM
